Data published in patent US20200157212A1 (Pfizer, published 2020).

What was measured:
[1] = target: T1, Human ROBO2 Ig1-Ig2-His (human, UniProt Q9HCK4 31-220); assay: SPR (Biacore T200), Abcs35 immobilized on a CM5 chip, ROBO2 Ig1-Ig2-His as analyte; column head kon(1/Ms)
T1 construct: the His tag is named only in the SPR paragraphs; the Octet and ELISA paragraphs print 'ROBO2 Ig1-Ig2' without a tag; also called ROBO2 Ig1-2; Human ROBO2 Ig 1,2
T1 sequence: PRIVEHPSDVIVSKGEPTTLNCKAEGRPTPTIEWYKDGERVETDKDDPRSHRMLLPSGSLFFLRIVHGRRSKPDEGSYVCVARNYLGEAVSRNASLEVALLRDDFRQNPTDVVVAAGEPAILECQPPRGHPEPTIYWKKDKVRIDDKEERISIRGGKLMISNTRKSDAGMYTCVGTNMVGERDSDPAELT
Experimental: […] Association and dissociation were followed over time.
Based upon several criteria, Abcs25 and Abcs35 were selected for further characterization. Using flow cytometry, improvement in the binding EC₅₀ to human ROBO2 relative to the parental 93H2 was evaluated. Starting at 6.7 nM, 11-point, 3-fold dilution series were made for each antibody and used to stain HEK293 overexpressing human ROBO2 as described above for the ROBO2 fold selectivity (Example 2). […] In addition to measuring improved binding to human ROBO2, it was important to ensure that high affinity binding to both cynomolgus monkey ROBO2 and rat ROBO2 was maintained. Using HEK293 cells overexpressing either cynomolgus monkey ROBO2 or rat ROBO2, the relative dose-dependent binding of 93H2, Abcs25 and Abcs35 was evaluated as described above. High affinity binding to both cynomolgus monkey and rat ROBO2 was maintained in Abcs25 and Abcs35 (Table 4). […] Briefly, Abcs35 was immobilized to 300 resonance units (RU) on a CM5 chip. Association of ROBO2 Ig1-Ig2-His (ROBO2) was measured over 5 minutes and dissociation was followed for a period of 10 minutes.

[2] = target: T2, Terbium (Tb) labeled-SNAP tagged ROBO2 expressed on HEK293 cells (Homo sapiens (Human), UniProt Q9HCK4 22-1378, terbium label on the SNAP tag); assay: HTRF competition on ROBO2 expressing cells; blocked ligand SLIT2-N; 11 points up to 10^2 nM, another dilution series than that of Table 2
T2 construct: also called Tb-labeled ROBO2 cells; ROBO2 expressing cells; not shown: SNAP tag
T2 sequence: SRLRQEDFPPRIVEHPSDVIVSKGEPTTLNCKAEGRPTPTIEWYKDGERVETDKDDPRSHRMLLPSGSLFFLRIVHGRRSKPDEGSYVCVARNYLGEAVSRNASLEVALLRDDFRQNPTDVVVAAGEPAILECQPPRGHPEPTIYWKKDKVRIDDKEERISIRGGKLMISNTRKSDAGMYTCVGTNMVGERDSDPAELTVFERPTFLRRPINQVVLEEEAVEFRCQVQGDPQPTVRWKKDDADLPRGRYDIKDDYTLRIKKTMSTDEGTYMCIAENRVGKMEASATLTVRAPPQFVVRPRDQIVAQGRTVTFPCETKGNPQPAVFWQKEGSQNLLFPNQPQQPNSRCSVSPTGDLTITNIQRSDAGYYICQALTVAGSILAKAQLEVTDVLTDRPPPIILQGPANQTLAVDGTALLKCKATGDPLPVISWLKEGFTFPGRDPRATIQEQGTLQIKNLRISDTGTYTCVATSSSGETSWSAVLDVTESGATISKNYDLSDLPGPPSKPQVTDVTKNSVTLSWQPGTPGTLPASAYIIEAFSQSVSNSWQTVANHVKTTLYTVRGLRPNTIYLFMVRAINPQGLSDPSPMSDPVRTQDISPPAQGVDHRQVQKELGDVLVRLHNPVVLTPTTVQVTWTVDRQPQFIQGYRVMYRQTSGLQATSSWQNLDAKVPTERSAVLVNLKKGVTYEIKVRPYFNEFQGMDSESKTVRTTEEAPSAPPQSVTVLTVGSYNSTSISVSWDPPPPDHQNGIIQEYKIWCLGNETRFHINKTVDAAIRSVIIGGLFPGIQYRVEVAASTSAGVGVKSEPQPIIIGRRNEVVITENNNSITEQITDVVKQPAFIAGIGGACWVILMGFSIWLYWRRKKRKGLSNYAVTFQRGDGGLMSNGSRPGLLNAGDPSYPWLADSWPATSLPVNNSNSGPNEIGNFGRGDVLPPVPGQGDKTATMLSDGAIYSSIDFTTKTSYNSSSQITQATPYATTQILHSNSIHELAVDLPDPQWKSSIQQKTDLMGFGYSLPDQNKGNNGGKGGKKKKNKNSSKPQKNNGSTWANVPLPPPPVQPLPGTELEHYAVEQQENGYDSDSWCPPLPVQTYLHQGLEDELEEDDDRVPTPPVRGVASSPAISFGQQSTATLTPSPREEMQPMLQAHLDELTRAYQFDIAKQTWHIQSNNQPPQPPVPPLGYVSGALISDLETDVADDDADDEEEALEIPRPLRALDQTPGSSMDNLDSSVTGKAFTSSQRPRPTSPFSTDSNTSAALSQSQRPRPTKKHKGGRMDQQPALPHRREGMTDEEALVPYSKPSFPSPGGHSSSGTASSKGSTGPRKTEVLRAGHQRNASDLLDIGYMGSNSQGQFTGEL

B1: Abcs35 (antibody, human IgG1, kappa)
heavy: EVQLVQSGAEVKKPGASVKVSCKASGYTFTGYYMHWVRQAPGQGLEWMGWINPKNGDTEFPQKFQGRVTMTRDTSITTAYMDLSRLRSDDTAVYYCARESGDDAFDIWGQGTMVTVSSASTKGPSVFPLAPSSKSTSGGTAALGCLVKDYFPEPVTVSWNSGALTSGVHTFPAVLQSSGLYSLSSVVTVPSSSLGTQTYICNVNHKPSNTKVDKKVEPKSCDKTHTCPPCPAPEAAGAPSVFLFPPKPKDTLMISRTPEVTCVVVDVSHEDPEVKFNWYVDGVEVHNAKTKPREEQYNSTYRVVSVLTVLHQDWLNGKEYKCKVSNKALPAPIEKTISKAKGQPREPQVYTLPPSREEMTKNQVSLTCLVKGFYPSDIAVEWESNGQPENNYKTTPPVLDSDGSFFLYSKLTVDKSRWQQGNVFSCSVMHEALHNHYTQKSLSLSPGK
light: DIVMTQSPSSLSASVGDRVTITCRASQSISSYLNWYQQKPGKAPKLLIYAASSLQSGVPSRFSGSGSGTDFTLTISSLQPEDFATYYCQQSVGLFFGGGTKVEIKRTVAAPSVFIFPPSDEQLKSGTASVVCLLNNFYPREAKVQWKVDNALQSGNSQESVTEQDSKDSTYSLSSTLTLSKADYEKHKVYACEVTHQGLSSPVTKSFNRGEC
notes: fully human IgG1; VH of Ab96 with VL of Ab123
[1]
  kon: 2.96e+07 M⁻¹ s⁻¹
[2]
  IC50 (read off the curve): ~0.05 nM
